B1: Mpn400 (residues 41 to 582), His-tagged recombinant, lacking the membrane domain (other)
chain: HHHHHHSSGLVPRGSHMNEVLRLQSGETLIASGRSGNLSFQLYSKVNQNAKSKLNSISLTDGGYRSEIDLGDGSNFREDFRNFANNLSEAITDAPKDLLRPVPKVEVSGLIKTSSTFITPNFKAGYYDQVAADGKTLKYYQSTEYFNNRVVMPILQTTNGTLTANNRAYDDIFVDQGVPKFPGWFHDVDKAYYAGSNGQSEYLFKEWNYYVANGSPLYNVYPNHHFKQIKTIAFDAPRIKQGNTDGINLNLKQRNPDYVIINGLTGDGSTLKDLELPESVKKVSIYGDYHSINVAKQIFKNVLELEFYSTNQDNNFGFNPLVLGDHTNIIYDLFASKPFNYIDLTSLELKDNQDNIDASKLKRAVSDIYIRRRFERQMQGYWAGGYIDRYLVKNTNEKNVNKDNDTVYAALKDINLHLEETYTHGGNTMYRVNENYYPGASAYEAERATRDSEFQKEIVQRAELIGVVFEYGVKNLRPGLKYTVKFESPQEQVALKSTDKFQPVIGSVTDMSKSVTDLIGVLRDNAEILNITNVSKDETVVAELKEKLDRENVFQEIRT
B2: 13PL IgG, monoclonal immunoglobulin from multiple myeloma patient 13PL (human IgG1κ) (antibody, V domains shown)
VH: AVSLVESGGGTVEPGSTLRLSCAASGFTFGSYAFHWVRQAPGDGLEWVAFISYNGSSKYYANFVKGRFTISRDNSSNTLSLQMNSLKASDTAVYYCARAPDCAQADCHKGAFGYWGQGTLVTVSS
VL: DIEMTQSPSSLSASTGDKVTITCQASQDIAQFLDWYQQRPGDTPKLLIYDASNLAIGVPSRFTGSGSGTDFTFTISSLQPEDIAVYYCQHYDDFPISFGPGTKLETKR
notes: also called multiple myeloma antibody 13PL; Multiple Myeloma antibody (13PL)
B3: PM2 (Protein M TD residues 74 to 482, Tyr158 to phenylalanine) (other)
chain: HHHHHHSSGLVPRGSHMSLSLNDGSYQSEIDLSGGANFREKFRNFANELSEAITNSPKGLDRPVPKTEISGLIKTGDNFITPSFKAGYYDHVASDGSLLSYFQSTEYFNNRVLMPILQTTNGTLMANNRGYDDVFRQVPSFSGWSNTKATTVSTSNNLTYDKWTYFAAKGSPLYDSYPNHFFEDVKTLAIDAKDISALKTTIDSEKPTYLIIRGLSGNGSQLNELQLPESVKKVSLYGDYTGVNVAKQIFANVVELEFYSTSKANSFGFNPLVLGSKTNVIYDLFASKPFTHIDLTQVTLQNSDNSAIDANKLKQAVGDIYNYRRFERQFQGYFAGGYIDKYLVKNVNTNKDSDDDLVYRSLKELNLHLEEAYREGDNTYYRVNENYYPGASIYENERASRDSEFQNEILKRAEQNGVTFDENIKR
B4: recombinant Protein M TD (His-tagged MG281 residues 74 to 468) (other)
chain: HHHHHHSSGLVPRGSHMSLSLNDGSYQSEIDLSGGANFREKFRNFANELSEAITNSPKGLDRPVPKTEISGLIKTGDNFITPSFKAGYYDHVASDGSLLSYYQSTEYFNNRVLMPILQTTNGTLMANNRGYDDVFRQVPSFSGWSNTKATTVSTSNNLTYDKWTYFAAKGSPLYDSYPNHFFEDVKTLAIDAKDISALKTTIDSEKPTYLIIRGLSGNGSQLNELQLPESVKKVSLYGDYTGVNVAKQIFANVVELEFYSTSKANSFGFNPLVLGSKTNVIYDLFASKPFTHIDLTQVTLQNSDNSAIDANKLKQAVGDIYNYRRFERQFQGYFAGGYIDKYLVKNVNTNKDSDDDLVYRSLKELNLHLEEAYREGDNTYYRVNENYYPGASIYENERASRDSEFQNEILKR

Experiments:
[1] = biological target: T1, 4PL IgG, human multiple myeloma antibody (Mayo Clinic); assay: Biolayer Interferometry; antibody on protein G sensors, Mpn400 in solution
[2] = biological target: T2, Human IgG1κ (Sigma Aldrich catalog no. 15154), myeloma antibody; assay: as above
T2 construct: also called IgG1k

[3] = biological target: T3, Human IgG2κ (Sigma Aldrich catalog no. 15404), myeloma antibody; assay: as above
T3 construct: also called IgG2k

[4] = biological target: T4, Human IgG2λ (Sigma Aldrich catalog no. 15279), myeloma antibody; assay: as above
T4 construct: also called IgG21

[5] = biological target: T5, Human IgG3κ (Sigma Aldrich catalog no. 15654), myeloma antibody; assay: as above
T5 construct: also called IgG3k

[6] = biological target: T6, Human IgG4κ (Sigma Aldrich catalog no. 14639), myeloma antibody; assay: as above
[7] = biological target: B1; assay: as above
[8] = biological target: T1, 4PL IgG, human multiple myeloma …; assay: Biolayer Interferometry; antibody on protein G sensors, PM2 in solution
[9] = biological target: T3, Human IgG2κ (Sigma Aldrich catalog no. …); assay: as above
[10] = biological target: T4, Human IgG2λ (Sigma Aldrich catalog no. …); assay: as above
[11] = biological target: T5, Human IgG3κ (Sigma Aldrich catalog no. …); assay: Biolayer Interferometry; antibody (printed IgG3λ) on protein G sensors, PM2 in solution
[12] = biological target: T6, Human IgG4κ (Sigma Aldrich catalog no. …); assay: Biolayer Interferometry; antibody (printed IgG4λ) on protein G sensors, PM2 in solution
[13] = biological target: T7, PGT135 Fab (against HIV-1 gp120, κ light chain); assay: Biolayer Interferometry (Octet Red)
T7 construct: also called Fab PGT135

[14] = biological target: T8, Fab CR9114 (against influenza hemagglutinin, λ light chain); assay: Biolayer Interferometry (Octet Red)
T8 construct: also called CR9114 Fab

Binder: B1
- Kd [1]: 0.6 nM
- Kd [2]: 0.48 nM
- Kd [3]: 6.23 nM
- Kd [4]: 13 nM
- Kd [5]: 0.93 nM
- Kd [6]: 0.43 nM

Binder: B2
- Kd [7]: 0.5 nM

Binder: B3
- Kd [8]: 0.6 nM
- Kd [9]: 9.56 nM
- Kd [10]: 8.9 nM
- Kd [11]: 6.6 nM
- Kd [12]: 1.84 nM

Binder: B4
- Kd [13]: 3.7 nM
- Kd [14]: 1.9 nM

Source: patent US20170320921A1 (Scripps Research, published 2017)
